8 variants from IntAct's records for PubMed 20959446 can be followed below.

B1: CMRF35-like molecule 7 (Homo sapiens), A8K4G0 (parent)
chain: MWLPPALLLLSLSGCFSIQGPESVRAPEQGSLTVQCHYKQGWETYIKWWCRGVRWDTCKILIETRGSEQGEKSDRVSIKDNQKDRTFTVTMEGLRRDDADVYWCGIERRGPDLGTQVKVIVDPEGAASTTASSPTNSNMAVFIGSHKRNHYMLLVFVKVPILLILVTAILWLKGSQRVPEEPGEQPIYMNFSEPLTKDMAT
partner: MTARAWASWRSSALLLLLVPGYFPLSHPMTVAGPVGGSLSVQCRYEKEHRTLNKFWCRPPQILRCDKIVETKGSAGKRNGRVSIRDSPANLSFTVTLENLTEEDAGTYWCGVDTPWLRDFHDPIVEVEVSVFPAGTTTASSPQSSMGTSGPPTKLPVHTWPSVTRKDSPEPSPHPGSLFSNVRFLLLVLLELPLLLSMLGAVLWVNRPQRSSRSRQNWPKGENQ
B2: CMRF35-like molecule 6 (Homo sapiens), Q08708 (parent)
chain: B1 partner
B3: CMRF35-like molecule 6 (Homo sapiens), Q08708 (parent)
chain: B1 partner
partner: B1 chain

In one test the parent is B1. Conditions: with clm6_human CD300C, Q08708.
Take MWLPPALLLLSLSGCFSIQGPESVRAPEQGSLTVQCHYKQGWETYIKWWGRGVRWDTCKILIETRGSEQGEKSDRVSIKDNQKDRTFTVTMEGLRRDDADVYWCGIERRGPDLGTQVKVIVDPEGAASTTASSPTNSNMAVFIGSHKRNHYMLLVFVKVPILLILVTAILWLKGSQRVPEEPGEQPIYMNFSEPLTKDMAT [C50G]: the “effect of a mutation on the interaction” value is “with no effect”.

MWLPPALLLLSLSGCFSIQGPESVRAPEQGSLTVQCHYKQGWETYIKWWCRGVRWDTCKILIETRGSEQGEKSDRVSIKDNQKDRTFTVTMEGLRRDDADVYGCGIERRGPDLGTQVKVIVDPEGAASTTASSPTNSNMAVFIGSHKRNHYMLLVFVKVPILLILVTAILWLKGSQRVPEEPGEQPIYMNFSEPLTKDMAT [W103G]: the “effect of a mutation on the interaction” value is given as “with no effect”.

Consider MWLPPALLLLSLSGCFSIQGPESVRAPEQGSLTVQCHYKQGWETYIKWWCRGVRGDTCKILIETRGSEQGEKSDRVSIKDNQKDRTFTVTMEGLRRDDADVYWCGIERRGPDLGTQVKVIVDPEGAASTTASSPTNSNMAVFIGSHKRNHYMLLVFVKVPILLILVTAILWLKGSQRVPEEPGEQPIYMNFSEPLTKDMAT [W55G], for which the “effect of a mutation on the interaction” value was “with no effect”.

For the variant MWLPPALLLLSLSGCFSIQGPESVRAPEQGSLTVQCHYKQGWETYIKWWCRGVRWDTCKILISTRGSEQGEKSDRVSIKDNQKDRTFTVTMEGLRRDDADVYWCGIERRGPDLGTQVKVIVDPEGAASTTASSPTNSNMAVFIGSHKRNHYMLLVFVKVPILLILVTAILWLKGSQRVPEEPGEQPIYMNFSEPLTKDMAT [E63S], the “effect of a mutation on the interaction” value is given as “with no effect”.

With MWLPPALLLLSLSGCFSIQGPESVRAPEQGSLTVQCHYKQGWETYIKWWCRGVRWDTCKILIETRGSEQGEKSDRVSIKDNQKDRTFTVTMEGLRRDDADVYWCGIERRGPMLGTQVKVIVDPEGAASTTASSPTNSNMAVFIGSHKRNHYMLLVFVKVPILLILVTAILWLKGSQRVPEEPGEQPIYMNFSEPLTKDMAT [D112M], the “effect of a mutation on the interaction” value is on record as “with no effect”.

Take MWLPPALLLLSLSGCFSIQGPESVRAPEQGSLTVQCHYKQGWETYIKWWCRGVRWDTCKILIETRGSEQGEKSDRVSIKDNQKDRTFTVTMEGLRRDDADVYWCGIERRGPDLGTQVKVIVDPEGAASTTASSPTNSNMAVFIGSHKRNHYMLLVFVLVPILLILVTAILWLKGSQRVPEEPGEQPIYMNFSEPLTKDMAT [K158L]: the “effect of a mutation on the interaction” value is reported as “with no effect”.

Another test covers variants of B2. Conditions: with fcerg_human FCER1G.
Take MTARAWASWRSSALLLLLVPGYFPLSHPMTVAGPVGGSLSVQCRYEKEHRTLNKFWCRPPQILRCDKIVETKGSAGKRNGRVSIRDSPANLSFTVTLENLTEEDAGTYWCGVDTPWLRDFHDPIVEVEVSVFPAGTTTASSPQSSMGTSGPPTKLPVHTWPSVTRKDSPEPSPHPGSLFSNVRFLLLVLLVLPLLLSMLGAVLWVNRPQRSSRSRQNWPKGENQ [E191V]: the “effect of a mutation on the interaction” value is recorded as “with no effect”.

A further test covers variants of B3. As to conditions: with clm7_human CD300LB, A8K4G0.
MTARAWASWRSSALLLLLVPGYFPLSHPMTVAGPVGGSLSVQCRYEKEHRTLNKFWCRPPQILRCDKIVETKGSAGKRNGRVSIRDSPANLSFTVTLENLTEEDAGTYWCGVDTPWLRDFHDPIVEVEVSVFPAGTTTASSPQSSMGTSGPPTKLPVHTWPSVTRKDSPEPSPHPGSLFSNVRFLLLVLLVLPLLLSMLGAVLWVNRPQRSSRSRQNWPKGENQ [E191V]: the “effect of a mutation on the interaction” value is recorded as “with no effect”.
